Test results reported in the supplement of paper PMC10567573.
± gives the standard deviation.

Experiment: protein stability index of a GFP-peptide fusion (GPS, HEK-293T) (PSI 1-6); higher = more stable
Conditions: c terminus: a fixed tail appended
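Also: 24-mer peptide tiles fused after GFP, lentivirally expressed, FACS-sorted into six equal bins by GFP/DsRed ratio, decoded by Illumina sequencing, PSI is the read-weighted mean bin number.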

Row | Sequence | protein stability index (treatment: DMSO) | protein stability index (treatment: MLN4924 1 uM, 8 h)
1 | AAAEVGGGVGGSSRARSASSPRGM [ANKRD17] | 4.82 ± 0.34 | 5 ± 0.24
2 | AAASAKDIYYNNMEEVCGGEKPYL [ATL3] | 4.21 ± 0.25 | 4.01 ± 0.069
3 | AAGELESMGFSARYNFTPDPDFKD [NETO1] | 4.71 ± 0.2 | 4.61 ± 0.18
4 | AAHRLARRLYHLEGFQRCDVARQL [PSD2] | 2.21 ± 0.43 | 2.46 ± 0.46
5 | AANKAVKCAEVIIPLLSSVNVSDR [ANKRD44] | 2.9 ± 0.27 | 2.98 ± 0.23
6 | AANKGEEKKDDENIPMETEETHLE [SMARCE1] | 5.64 ± 0.33 | 5.34 ± 0.42
7 | AAPGALGSLHAGGARLVAACSAWL [AUH] | 2.65 ± 0.047 | 2.39 ± 0.34
8 | AAQNCRKRKLDTILNLERDVEDLQ [NFE2L1] | 4.09 ± 0.44 | 4.62 ± 0.27
9 | AASPELSALEEAFRRFAVHGDARA [TPPP] | 3.73 ± 0.12 | 3.74 ± 0.26
10 | AASVRMRGEAEAFAIGARARAEAE [FLOT1] | 5.32 ± 0.17 | 4.96 ± 0.23
11 | ACGGHVELAALLIERGASLEEVND [ANKRD17] | 3.91 ± 0.29 | 3.73 ± 0.22
12 | ADPLRVSSRDKLTEMAASSQGNFE [FUNDC2] | 4.96 ± 0.2 | 5.18 ± 0.26
13 | ADSVITVGRGEVVTVRVPTHEEGS [ACBD3] | 4.88 ± 0.2 | 4.88 ± 0.16
14 | ADTRRLNSKPQDLTDAYGPPSNFL [SNX12] | 3.97 ± 0.22 | 3.93 ± 0.068
15 | AEHEITELTATFTKFDRDGNRILD [PKD2L1] | 4.76 ± 0.24 | 4.95 ± 0.19
16 | AETQPQNPPAQPAPNAWQVIKGVL [CLPTM1] | 3.55 ± 0.15 | 3.78 ± 0.25
17 | AEVNAVDNEGNSALHIIVQYNRPI [FEM1B] | 2.48 ± 0.25 | 2.48 ± 0.23
18 | AEVRHEIQDGTIHLYIYSIHSIPK [KMT2E] | 2.1 ± 0.76 | 1.51 ± 0.14
19 | AFERQQVENRVVEEAKGLLDKVKD [ZBED1] | 4.97 ± 0.38 | 5.61 ± 0.19
20 | AFHGAPSHLPTRSPSFPEAPDSGR [TBX6] | 4.32 ± 0.26 | 4.37 ± 0.38
21 | AGGAGGGVTEEQEGFADGFVKALD [JUNB] | 5.32 ± 0.17 | 5.35 ± 0.085
22 | AGISPLQQMVASGTGAVVTSLFMT [SLC25A39] | 2.02 ± 0.57 | 2.17 ± 0.5
23 | AHLPKAQLSGYAVEATRNQSQLQR [FBF1] | 4.21 ± 0.044 | 4.08 ± 0.2

Row | Sequence | protein stability index (treatment: DMSO) | protein stability index (treatment: MLN4924 1 uM, 8 h)
24 | AHSNAISNCCFTFSGHFLCTSSWD [WDR88] | 2.48 ± 0.49 | 2.3 ± 0.57
25 | AIHYCASTSEESWTDSEVDSSCSG [SPDEF] | 5.28 ± 0.2 | 5.18 ± 0.37
26 | AIPIEIKSIDDTSNFDDFPESDIL [STK38L] | 4.67 ± 0.17 | 4.84 ± 0.11
27 | AKGLAESLELPKAIQDQLPRLQQL [FANCE] | 3.95 ± 0.12 | 4.15 ± 0.3
28 | AKKEDKVPVKKQKTRTVFSSTQLC [NANOGP8] | 4.2 ± 0.1 | 4.19 ± 0.12
29 | AKKGRRNQSVEPKKEEPEPETEAV [ZMYND11] | 5.53 ± 0.28 | 5.66 ± 0.21
30 | ALALQARGCSVKIWTAHYDPGHCF [ALG2] | 2.25 ± 0.41 | 2.23 ± 0.26
31 | ALCELLEKETQIIASIGRHRYIAY [IQUB] | 2.25 ± 0.3 | 2.16 ± 0.24
32 | ALEGSALANGRALSAGSPPVPPGW [DLX1] | 3.59 ± 0.15 | 3.86 ± 0.17
33 | ALLDQIRQGIQLNKTPGAPESSAL [WAS] | 3.3 ± 0.16 | 3.15 ± 0.53
34 | ALLIVDSATALYRTDYSGRGELSA [RAD51] | 2.17 ± 0.33 | 2.27 ± 0.42
35 | ALSSPRSRKNATQPPNAEEESGSS [INTS3] | 5.24 ± 0.31 | 5.38 ± 0.24
36 | AMELRHQGGEYLPKPEPPQLVLAY [FEM1A] | 2.32 ± 0.33 | 2.38 ± 0.28
37 | AMVTADSKYCYGPQGSRSPYIPPH [FKBP8] | 3.27 ± 0.42 | 3.13 ± 0.26
38 | AMVWALDLDDFAGFSCNQGRYPLI [CHIT1] | 2.5 ± 0.56 | 2.65 ± 0.63
39 | APDAHFTVDKQNISLWPREPPPKS [CD207] | 4.73 ± 0.24 | 4.78 ± 0.27
40 | APDLVLNAEMVQQTTYLEDRPMFM [LOXL2] | 3.25 ± 0.18 | 3.43 ± 0.17
41 | APEFIKVRENLRRIATLTSEEREL [FAM107A] | 4.48 ± 0.31 | 4.62 ± 0.16
42 | APKAGLEEAPAVTAGLKIFEPPAP [TNFSF13B] | 4.6 ± 0.26 | 4.68 ± 0.086
43 | APVILVGCQLDLRYADLEAVNRAR [RHOBTB2] | 2.57 ± 0.17 | 2.45 ± 0.21
44 | APYAAAAAAQSYPGYLPYSPEPPS [IRX6] | 4.06 ± 0.14 | 4.2 ± 0.15
45 | AQVLMLGQILELPWKEETFLVLQS [FANCE] | 2.47 ± 0.33 | 2.65 ± 0.67
46 | ARGIAGEKFDIVKKWGINTYKCTK [ARFIP2] | 3.3 ± 0.35 | 3.27 ± 0.077

Row | Sequence | protein stability index (treatment: DMSO) | protein stability index (treatment: MLN4924 1 uM, 8 h)
47 | ARHLREYQELLNVKMALDIEIATY [PRPH] | 2.34 ± 0.4 | 2.4 ± 0.37
48 | ARLLQEGGGGVAAVVVLDQGSRHW [DUSP5] | 2.64 ± 0.97 | 2.44 ± 0.75
49 | ARQETKEMARKVIEHCSNFKEENM [ZER1] | 4.74 ± 0.23 | 4.57 ± 0.45
50 | ASESEHIPKPQSTGWFGGGFTSYL [MIA2] | 2.4 ± 0.37 | 2.69 ± 0.34
51 | ASSASLEPMWSGSTMRRMALRPTA [EMID1] | 3.43 ± 0.23 | 3.64 ± 0.43
52 | ATTASPAKVDSSGVIDLFGDAFGS [SNAP91] | 4.06 ± 0.2 | 4.42 ± 0.15
53 | ATYLRCQLLLIKALQEKLWNVAAP [INTS4] | 3.16 ± 0.3 | 2.9 ± 0.39
54 | AVKLADFGLAIEVEGEQQAWFGFA [CAMK2A] | 2.51 ± 0.48 | 2.26 ± 0.5
55 | AVVASSVNSYYSSPAQQVPKNPAL [TOR1AIP2] | 3.51 ± 0.16 | 3.46 ± 0.18
56 | AWAAHTRLFQVVGKTDDTLALLNL [TMEM175] | 2.25 ± 0.13 | 2.03 ± 0.042
57 | AYMDRRDHPLPEVAHVKHLSASQK [COX4I1] | 4.34 ± 0.32 | 4.6 ± 0.32
58 | CAFVGALGGAAFLGTAIFIEADRR [SPNS1] | 2.8 ± 0.78 | 2.36 ± 0.67
59 | CDALRTLAEARRLFPGRVSVDLML [RSAD1] | 2.05 ± 0.33 | 2.03 ± 0.37
60 | CEKTFRDKNTLKDHMRKKQHRKIN [ZNF277] | 3.77 ± 0.21 | 3.71 ± 0.31
61 | CFQSCLCCCCYQSKSLMTSVPMNG [EDNRA] | 2.31 ± 0.53 | 2.41 ± 0.18
62 | CGPPSLGAVLALVAIFIMSLNKRH [MFSD9] | 3.3 ± 0.89 | 3.41 ± 1.1
63 | CGTPLRKSNFRVQLFEDPTVDKEV [MNAT1] | 3.84 ± 0.09 | 3.75 ± 0.16
64 | CLMLLMGTVHCQIVSTQITRPSGN [PHTF1] | 3.12 ± 0.47 | 2.84 ± 0.47
65 | CLPPEPSPDDPESVKIIFKLPNDS [FAF2] | 4.76 ± 0.17 | 4.82 ± 0.13
66 | CMVGYDMGATRCDFTLSKTNMARI [CPXM2] | 2.24 ± 0.6 | 2.1 ± 0.22
67 | CNECAKLIIQAGIKEVIFMSDKYH [DCTD] | 2.01 ± 0.81 | 2.43 ± 0.41
68 | CNECGKAFRWGAHLVQHQRIHSGE [ZNF232] | 4.44 ± 0.56 | 4.53 ± 0.26
69 | CPQSLPCFEASDCKESSPMPVICG [NANOGP8] | 3.77 ± 0.18 | 3.89 ± 0.083

Row | Sequence | protein stability index (treatment: DMSO) | protein stability index (treatment: MLN4924 1 uM, 8 h)
70 | CQACRFMKCLKVGMLKEGVRLDRV [ESRRG] | 2.6 ± 0.45 | 2.04 ± 0.16
71 | CQQNMIQELIETNQQLRNELQLEQ [CEP70] | 4.12 ± 0.26 | 3.85 ± 0.51
72 | CSGTELSLAHCRHDGEDVACPQGG [LOXL2] | 4.78 ± 0.73 | 4.3 ± 0.24
73 | CSSSDDDTDVDMEGLRRRRGREAG [PBXIP1] | 5.3 ± 0.28 | 5.26 ± 0.21
74 | CVPAHPPPCAWACPVPAHRRGSWR [CTBP1-DT] | 2.56 ± 0.19 | 2.77 ± 0.18
75 | CVQCGKSYSQSSNLFRHQRRHNAE [ZNF24] | 4 ± 0.16 | 4.42 ± 0.42
76 | CYRENTHQTLKCSALATQYMHCVN [CHCHD3] | 2.17 ± 0.47 | 2.26 ± 0.43
77 | DAILYYYQSGGRLKRPVNVPFDIF [KCNA4] | 2.58 ± 0.54 | 2.52 ± 0.63
78 | DAKDAARDMNGKSLDGKAIKVEQA [RBMX] | 5.36 ± 0.41 | 5.37 ± 0.39
79 | DCSGLVLLCLFFGIPWEAGARQIS [PCDHGA10] | 3.45 ± 0.4 | 3.19 ± 0.2
80 | DDAGTSGGPSSPPSDPPAMSPGPL [C2CD2L] | 5.38 ± 0.38 | 5.37 ± 0.32
81 | DDEEVDTHFASQEFFSANAISDQL [ADAMTSL2] | 5.27 ± 0.23 | 5.21 ± 0.15
82 | DDVEVLTLKKFKGDLAYRRQEYQK [C8orf76] | 3.78 ± 0.18 | 3.92 ± 0.31
83 | DETLSSSHQKCPQLGGPEASGGLV [PLEKHN1] | 4.97 ± 0.1 | 4.8 ± 0.31
84 | DFHYCDREHVCRKDQRNPPSLGRV [RBMY1A1] | 3.27 ± 0.27 | 3.8 ± 0.4
85 | DGAISAHKPLLICSCEWMAAMFGG [RHOBTB1] | 2.25 ± 0.29 | 2.3 ± 0.15
86 | DHARGKSQVALKIIRNVGKYREAA [CLK3] | 3.15 ± 0.18 | 3.33 ± 0.19
87 | DHCAQQDHGCEQLCLNTEDSFVCQ [MATN2] | 5 ± 0.075 | 5.08 ± 0.16
88 | DHKEPKEEINKNISDFGRQQLLPP [EHMT1] | 5.1 ± 0.2 | 5.16 ± 0.21
89 | DHSSQSEEEVVEGEKEVEALKKSA [BNIP3L] | 5.5 ± 0.36 | 5.67 ± 0.26
